The source of these data is patent US11732048B2, “Anti-axl antagonistic antibodies” (BERGEN TEKNOLOGIOVERFØRING AS, priority 2016, dated 2023).

Assay [1] concerns the target T1, Hs-Axl-Fc (immobilized Axl-Fc) (Homo sapiens, UniProt P30530).
T1 construct: Fc
In words: Biacore binding competition assays, two injections (Example 22). An excerpt: Sensor chip with immobilised Axl: Hs-Axl-Fc (638.2 RU), Mm-Axl-Fc (334.5 RU), Rhe-Axl-Fc (350.2 RU)
In this experiment, a first antibody was allowed to bind to saturation. A second antibody was then applied and its ability to bind was monitored.
If the second antibody recognizes the same (or overlapping) epitope as the first antibody then binding will be blocked. If the second antibody recognizes a different epitope then binding will be detected at the same level as if no first antibody was present.
The ability of Gas6 to block antibody binding was also tested, using Gas6 at 10 μg/mL in HBS-EP.
All tests were performed in parallel on Hs-Axl-Fc, Mm-Axl-Fc and Rhe-Axl-Fc surfaces.
See FIG. 1 for a list of the pairs that were tested (in this list Contr-1 is incorrectly labeled YW367 instead of YW327.6S2var). All antibodies were at 25 μg/mL in HBS-EP.
• 2. Perform Biacore experiments at 25° C. • 3. In the instrument control software choose Direct Binding, and select settings for two injections as shown below. • 4. […] Store the template & the result file, start the analysis.
A general note: In SPR one partner is held on a chip, and binding of the other changes the refractive index at the surface.

Assay [2] concerns the target T2, rhAxl-Fc (binding of Gas6 / MAB154) (Homo sapiens, UniProt P30530).
T2 construct: Fc
As to the kind of experiment: Biacore competitive binding study, MAb 10G5 as first sample (Example 6). As to conditions: rhAxl-Fc saturated with 10G5 (160 nM), second sample 25 μg/mL. The procedure: A competitive binding study was performed using Biacore 3000 instrument (GE Healthcare) and Binding Analysis wizard with several cycles of two samples injection. As a first sample, a saturating concentration of MAb 10G5 (160 nM or 24 μg/mL) was injected over the surface of a CM5 sensor chip coated with rhAxl-Fc (using amine coupling) for 3 min at flow rate of 30 μL/min followed by 2.5 min stabilization (HBS-EP buffer alone) before the injection of the second sample. The following second samples were used: recombinant human (rh) Gas6 (R&D Systems, Cat. no. 885-GS), recombinant mouse (rm) Gas6 (R&D Systems, Cat. no. 986-GS/CF) and a panel of anti-Axl antibodies, such as MAB154 (R&D Systems, Cat. no. MAB154), and 10G5; all at concentration 25 μg/mL. The second sample was injected for 3 min, followed by 2.5 min stabilization (buffer alone) and regeneration of the surface by 30 sec injection of a regeneration solution (10 mM HCl, 1 M NaCl) at flow rate 50 μL/min.

Assay [3] addresses T3, Axl receptor protein in MBA-MD-231 cells (Homo sapiens, UniProt P30530).
T3 construct: The expression of Axl receptor protein in MBA-MD-231 cells treated with different antibodies was examined by Western blot analysis; endogenous in cells; host or cells: MDA-MB-231 (printed 'MBA-MD-231') human breast carcinoma cells
As to the kind of experiment: Western blot of Axl receptor protein after antibody treatment. The format is cell-based. As to conditions: 100 μg/mL, 20 hrs, versus irrelevant IgG or MAb #3. The procedure:
The expression of Axl receptor protein in MBA-MD-231 cells treated with different antibodies was examined by Western blot analysis. The cells were seeded in a 6-well plate at density of 5×10^5 cells per well and cultured overnight before treatment initiation. The cells were treated for 20 hrs in the presence of isotype control (mouse IgG2b), anti-Axl antibodies (10G5 and MAb #3) at concentrations of 100 μg/mL or multikinase inhibitor Foretinib (targets Met, Ron, Axl, Tie-2, and VEGFR2) at a concentration of 0.5 μM followed by harvesting by centrifugation at 1,200 rpm for 5 min and washing with sterile PBS. The cells were collected by centrifugation and resuspended in NP40-lysis buffer followed by 30 min incubation on ice. The cell lysates were cleared by centrifugation (12,000 rpm, 4° C., 5 min) and the protein concentrations were determined using BCA protein assay. The cell lysate samples comprising 35 μg of total protein were denatured in presence of the reducing agent (Life Technologies) and loaded into the wells of NuPAGE 10% Bis-Tris polyacrylamide (PAA) gel, 1.0 mm×12 well (Invitrogen). The electrophoresis was performed using Bis-Tris SDS running buffer under the recommended conditions (Life Technologies) and the proteins were transfer on PVDF membrane, as described for 2 gels in a manual for XCell II™ Blot Module (Invitrogen) using the transfer buffer with 20% methanol. […]
(A western blot detects proteins with antibodies after separation by electrophoresis.)

For a further assay, the system named is cyno-Axl (cyno-Axl-Fc). As to the kind of experiment: Biacore binding analysis on immobilised cynomolgus Axl. Also noted: species or system cynomolgus monkey (Macaca fascicularis). As to conditions: 10 μg/mL in HBS-EP, 25° C. Here is the method: The sequence of Axl receptor from cynomolgus monkey (Macaca fascicularis; SEQ ID NO: 27) was retrieved from WO2009062690A1. Based on the sequence, recombinant extracellular domain of cyno-Axl was generated by transient expression in CHO cells as a fusion protein with human Fc. The recombinant cyno-Axl-Fc was purified to homogeneity using Protein A-Sepharose (GE Healthcare). The binding experiments were performed using Biacore 3000 instrument (GE Healthcare) at 25° C. The soluble recombinant antigens corresponding to human Axl (rhAxl-Fc chimera; R&D Systems, Cat. no. 154-AL) and cyno-Axl were immobilized on the surface of CM5 sensor chip using amine coupling at the surface density of 775 and 880 RU, respectively. The Biacore runs were performed in an automatic mode using Binding analysis wizard.
cyno-Axl (cyno-Axl-Fc), sequence (as listed by the source): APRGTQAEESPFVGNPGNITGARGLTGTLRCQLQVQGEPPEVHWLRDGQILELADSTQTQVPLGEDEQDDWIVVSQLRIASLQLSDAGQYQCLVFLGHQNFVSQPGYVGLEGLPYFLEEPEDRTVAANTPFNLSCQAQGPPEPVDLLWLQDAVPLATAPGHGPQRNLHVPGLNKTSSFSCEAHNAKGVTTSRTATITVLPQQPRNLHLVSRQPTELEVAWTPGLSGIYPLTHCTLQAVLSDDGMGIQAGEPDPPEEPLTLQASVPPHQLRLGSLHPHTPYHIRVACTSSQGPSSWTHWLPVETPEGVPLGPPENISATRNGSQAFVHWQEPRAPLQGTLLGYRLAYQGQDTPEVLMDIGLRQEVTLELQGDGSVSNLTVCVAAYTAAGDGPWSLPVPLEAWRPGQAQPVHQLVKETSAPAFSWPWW
The sample containing MAb 10G5 or human Axl-specific MAb 5F11 (control) at concentration 10 μg/mL in HBS-EP buffer (GE Healthcare) was injected over the surfaces with immobilized antigens at flow rate of 30 μL/min for 3 min (association) followed by 5 min dissociation.

“Also recorded” adds a separate entry of the source.

B1: murine 10G5: mouse monoclonal anti-human Axl antibody from hybridoma WR-10G5-E5; VH SEQ ID NO: 28, VL SEQ ID NO: 29 (antibody, listed as Mus musculus, V domains shown)
VH: QVQLQQSGAELVRPGASVKLSCKASGYSFTDFYINWVRQRPGQGLEWIARIFPGGDNTYYNEKFKGKATLTAEESSSTAYIQLSSLTSEDSAVYFCARRGLYYAMDYWGQGISVTVSS
VL: DVLMTQTPLSLPVSLGDQASISCRSSQSLVHSNGIPYLHWYLQKPGQSPKLLIYRVSNRFSGVPDRFSGSGSGTDFTLKISRVEAEDLGVYFCSQGTHVPPTFGGGTKLEIK
modifications: (1)..(118) Mus musculus 10G5 VH domain; (1)..(112) Mus musculus 10G5 VL domain
Regarding B1, in assay [1], the “Competition with 1H12 for binding to Axl” value is “No competition”. Further, in assay [2], the “Competition with MAB154 for Axl binding” value was “did no inhibit; also recorded: did not compete”; the “Inhibition of Gas6 (human and murine) binding to rhAxl” value is on record as “cannot be bound; also recorded: inhibited”. Further, in assay [3], the “Axl receptor protein level” value is reported as “significant reduction in the amount of Axl receptor protein”. Also, in the assay with cyno-Axl (cyno-Axl-Fc), the “Binding to Axl from cynomolgus monkey” value is “bind strongly; also recorded: strong and specific interaction”.
